These results are taken from paper PMC4349446.

The experiment addresses Recombinant truncated LOX-1 (61–273 amino acids, extracellular domain) with a hexa-histidine tag (human) (UniProt P78380). Put plainly: ELISA; human LOX-1 (1 μg/ml) coated on wells; hSAA3 peptide 10–2,000 ng/ml in PBS-0.05% Tween20–0.5% Triton X-100; retained peptide detected with monoclonal anti-hSAA3-HRP. For orientation: ELISA stands for enzyme-linked immunosorbent assay.

For orientation: Kd means a measure of binding affinity in units of concentration. Regarding “hSAA3 C-terminal 26 mer synthetic peptide”, the Kd amounted to 99 nM.
